Target: T1, octanoyl-AcpP (C8-AcpP), E. coli acyl carrier protein (E. coli, UniProt P0A6A8 2-78, octanoyl pantethenamide probe loaded (stable C8 acyl analog); uniformly 15N labeled and perdeuterated)
T1 construct: acyl carrier protein AcpP, E. coli; PDB 2FAD is heptanoyl-AcpP, used for docking only; also called 15N-C8-AcpP; source: E. coli BL21 (DE3), M9 minimal media with 15N NH4Cl and D2O, purified; made apo with P. aeruginosa ACPH, then loaded with CoaA, CoaD, CoaE and Sfp
Experiment: NMR titration; 1H-15N HSQC of 15N, perdeuterated C8-AcpP titrated with unlabeled partner, at least five points; 37 °C; 10 mM potassium phosphate pH 7.4, 0.5 mM TCEP, 0.1% NaN3; TITAN 2D lineshape analysis, flexible stoichiometry model
Conditions: both partners purified

T1 sequence (P0A6A8 2-78): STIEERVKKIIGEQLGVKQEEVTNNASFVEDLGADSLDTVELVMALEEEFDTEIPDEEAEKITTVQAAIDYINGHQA

B1: FabF, E. coli elongating ketosynthase (enzyme)
chain: SKRRVVVTGLGMLSPVGNTVESTWKALLAGQSGISLIDHFDTSAYATKFAGLVKDFNCEDIISRKEQRKMDAFIQYGIVAGVQAMQDSGLEITEENATRIGAAIGSGIGGLGLIEENHTSLMNGGPRKISPFFVPSTIVNMVAGHLTIMYGLRGPSISIATACTSGVHNIGHAARIIAYGDADVMVAGGAEKASTPLGVGGFGAARALSTRNDNPQAASRPWDKERDGFVLGDGAGMLVLEEYEHAKKRGAKIYAELVGFGMSSDAYHMTSPPENGAGAALAMANALRDAGIEASQIGYVNAHGTSTPAGDKAEAQAVKTIFGEAASRVLVSSTKSMTGHLLGAAGAVESIYSILALRDQAVPPTINLDNPDEGCDLDFVPHEARQVSGMEYTLCNSFGFGGTNGSLIFKKI
notes: ketosynthase FabF (3-oxoacyl-ACP synthase 2), E. coli; also called KS; source: E. coli BL21 (DE3), purified (Ni-IMAC, Superdex 75)
With B1 the “stoichiometry N” value was about 1.

Source: paper PMC7966745, “Elucidation of transient protein-protein interactions within carrier protein-dependent biosynthesis” (Communications Biology, 2021)
